Columns and labels:
[1] = biological target: YU2gp140 (cleavage-deficient, trimeric HIV-1 Env gp140 with T4 fibritin trimerization motif) (HIV-1 isolate YU2 | bacteriophage T4); assay: SEC
[2] = biological target: YU2gp140:gpD fusion protein (HIV-1 isolate YU2 | bacteriophage T4 | bacteriophage lambda); assay: SEC

Question: With “YU2gp140 (cleavage-deficient, trimeric HIV-1 Env gp140 with T4 fibritin trimerization motif)” as the substance, how does the stoichiometry N [1] read?
Answer: The stoichiometry N was 3.

Question: With YU2gp140:gpD fusion protein as the substance, how does the stoichiometry N [2] read?
Answer: The stoichiometry N was 3.
